These results are taken from US20220411536A1 (NUMAB THERAPEUTICS, published 2022).

For assay [1], the target named is CD3e on Jurkat PD-1 NFAT reporter T cells or on T cells of human PBMCs (human, UniProt P07766 23-207). Nature of the assay: cell-based or functional assay.
Another assay deals with T1, mouse serum albumin (mouse, UniProt P07724 25-608).
T1 construct: also called MSA; mouse SA
Briefly: SPR, immobilised MSA, pH 5.5. In general terms: In SPR one partner is held on a chip, and binding of the other changes the refractive index at the surface.

Assay [2] concerns the target T2, human PD-L1 expressed on cells (CHO-PD-L1, HCC1954, HCC827) (human, UniProt Q9NZQ7 19-290).
T2 construct: whole, on cells; also called hPD-L1; PD-L1 expressing cells
Briefly: flow cytometry, inhibition of biotinylated PD-1 binding to HCC827 cells. A general note: In flow cytometry, cells or beads pass a laser one at a time.

Assay [3] concerns the target T3, Fc-tagged human PD-L1 extracellular domain (SinoBiological, cat. 10084-H02H) (human, UniProt Q9NZQ7 19-238).
T3 construct: extracellular domain; also called hPD-L1; not shown: Fc tag of the bought protein
Briefly: SPR, captured Fc-PD-L1 ECD, kinetic.

In assay [4] the target is T2, human PD-L1 expressed on cells …. Nature of the assay: flow cytometry, inhibition of biotinylated PD-1 binding to HCC1954 cells.
Another assay has as its target T4, human serum albumin (human, UniProt P02768 25-609).
T4 construct: also called HSA; human SA
Briefly: SPR, immobilised HSA, pH 5.5.

The target of assay [5] is T5, recombinant human Her2 ECD (SinoBiological, cat. 10004-HCCH) (human, UniProt P04626 23-652).
T5 construct: extracellular domain; bought protein
Briefly: SPR, immobilised Her2 ECD.

In assay [6] the target is T6, recombinant human CD3E ECD (SinoBiological, cat. 10977-H08H) (human, UniProt P07766 23-126).
T6 construct: extracellular domain; bought protein; also called CD3s
Nature of the assay: SPR, immobilised CD3e ECD, two-state model (kd1).

The target in assay [7] is T3, Fc-tagged human PD-L1 extracellular …. Nature of the assay: SPR, captured Fc-PD-L1 ECD, steady state.
Assay [8] concerns the target T6, recombinant human CD3E ECD …. Briefly: SPR, immobilised CD3e ECD, two-state model.
The target is the same in assay [9]. Briefly: SPR, immobilised CD3e ECD, two-state model (ka1).
For assay [10], the target named is T7, recombinant human IL-23R (custom-made by Trenzyme) (human, UniProt Q5VWK5 24-355).
T7 sequence (looked up): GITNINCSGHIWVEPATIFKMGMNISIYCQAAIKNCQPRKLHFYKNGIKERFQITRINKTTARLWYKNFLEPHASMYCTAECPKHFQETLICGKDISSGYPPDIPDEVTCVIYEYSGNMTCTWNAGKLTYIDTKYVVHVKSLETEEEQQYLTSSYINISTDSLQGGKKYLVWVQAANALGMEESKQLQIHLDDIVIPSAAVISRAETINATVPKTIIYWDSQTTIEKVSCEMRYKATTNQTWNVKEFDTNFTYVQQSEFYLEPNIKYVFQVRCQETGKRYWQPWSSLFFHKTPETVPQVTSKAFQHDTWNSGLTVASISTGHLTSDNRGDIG
Briefly: SPR, immobilised IL-23R.

For assay [11], the target named is T3, Fc-tagged human PD-L1 extracellular …. Nature of the assay: SPR, alanine mutants of 33-03-G02.
The target is the same in assay [12]. Nature of the assay: SPR, captured Fc-PD-L1 ECD, scFv analyte, kinetic.

T6 sequence (P07766 23-126): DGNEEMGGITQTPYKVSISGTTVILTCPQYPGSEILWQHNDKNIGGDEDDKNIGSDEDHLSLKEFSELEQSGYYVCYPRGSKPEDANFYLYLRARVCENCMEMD
T1 sequence (P07724 25-608 limits assumed): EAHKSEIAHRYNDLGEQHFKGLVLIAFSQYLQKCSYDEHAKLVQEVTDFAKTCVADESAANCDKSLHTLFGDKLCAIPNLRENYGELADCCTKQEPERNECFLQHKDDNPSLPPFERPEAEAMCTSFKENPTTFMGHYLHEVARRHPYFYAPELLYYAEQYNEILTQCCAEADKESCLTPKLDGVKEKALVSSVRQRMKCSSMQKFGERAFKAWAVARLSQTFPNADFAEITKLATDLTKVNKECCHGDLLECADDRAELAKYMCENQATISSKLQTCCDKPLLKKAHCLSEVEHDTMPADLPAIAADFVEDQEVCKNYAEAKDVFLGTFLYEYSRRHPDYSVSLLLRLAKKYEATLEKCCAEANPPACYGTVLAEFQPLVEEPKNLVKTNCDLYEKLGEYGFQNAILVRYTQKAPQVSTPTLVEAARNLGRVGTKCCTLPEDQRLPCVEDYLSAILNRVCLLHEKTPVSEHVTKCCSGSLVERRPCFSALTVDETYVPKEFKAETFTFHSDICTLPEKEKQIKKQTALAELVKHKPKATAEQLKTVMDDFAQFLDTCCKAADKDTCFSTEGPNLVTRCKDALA

B1: PRO1544 (multispecific antibody)
chain 1: DIQMTQSPSSLSASVGDRVTITCQASQSINDYLAWYQQKPGKAPKLLIYKASTLASGVPSRFSGSGSGTDFTLTISSLQPEDFATYYCQAAYIITDIDNVFGTGTKVTVLGGGGGSGGGGSGGGGSGGGGSQVQLQESGPGLVKPSETLSLTCKVSGFSFSSGYDMCWIRQPPGKGLEWIGCVVAGSVDITYYASWAKGRVTISVDSSKNQFSLKLSSVTAADTAVYYCARKDAYSDAFNLWGQGTLVTVSSGGGGSGGGGSDVVMTQSPSSLSASVGDRVTITCQASQIISSRSAWYQQKPGQPPKLLIYQASKLASGVPSRFSGSGSGTDFTLTISSLQPEDFATYYCQCTYIDSNFGAFGCGTKLTVLGGGSGGSDIQMTQSPSSLSASVGDRVTITCQSSQSVFSNNYLAWFQQKPGQSPKRLIYSASTLASGVPSRFSGSGSGTDFTLTISSLQPEDFATYYCLGSYACSSADCYVFGTGTKVTVLG
chain 2: not shown
What is called Kd is a measure of binding affinity in units of concentration. Broadly, the koff is the first-order rate constant of dissociation. A word on the kon: it is a measure of how fast the partners come together. The term IC50 denotes the midpoint of a concentration-inhibition curve. Low readings indicate higher potency, high ones lower potency. In the case of B1, in assay [1], the “IC50, NFAT reporter, CHO-PD-L1 (A2 clone) cells” value turned out to be 10.5 nM. Further, the “IC50, NFAT reporter, HCC1954 cells” value in assay [1] is 2290 pM. Also, the “rel. max. activation vs PRO1497, NFAT reporter, HCC1954 cells” value in assay [1] is 78%. Also, the “rel. max. activation vs PRO1497 on HCC1954, NFAT reporter, CHO-PD-L1 (A2 clone) cells” value in assay [1] came out at 42%. For the same molecule, the Kd came out at 19.5 nM in the assay with mouse serum albumin; 284 nM in [3]; 0.87 nM in the assay with human serum albumin; 0.354 nM in [5]; 809 nM in assay [7]; 12.7 nM in [8]. For the same molecule, the koff amounted to 0.00112 s⁻¹ in the assay with mouse serum albumin; 0.00117 s⁻¹ in assay [3]; 0.000121 s⁻¹ with human serum albumin; 5.56e-05 s⁻¹ in assay [5]; 0.00516 s⁻¹ in [6]. The on-rate constant (kon) in the assay with mouse serum albumin is 57500 M⁻¹ s⁻¹; in [3], 4120 M⁻¹ s⁻¹; in the assay with human serum albumin it was 139000 M⁻¹ s⁻¹; in assay [5], 157000 M⁻¹ s⁻¹; in assay [9] it was 222000 M⁻¹ s⁻¹. Further, the IC50 in assay [2] was found to be 46 µg/mL; in assay [4], 0.528 µg/mL. Also, the KD1 in [8] was determined as 23.2 nM. Also, the kd2 in assay [8] stood at 0.0042 s⁻¹. For the same molecule, the binding result in assay [10] is listed as “no binding (tested: 90 nM highest concentration)”.

B2: PRO1076 (scFv, V domains shown)
VH: QVQLQESGPGLVKPSETLSLTCKVSGFSFSSGYDMCWIRQPPGKGLEWIGCVVAGSVDITYYASWAKGRVTISVDSSKNQFSLKLSSVTAADTAVYYCARKDAYSDAFNLWGQGTLVTVSS
VL: DIQMTQSPSSLSASVGDRVTITCQASQSINDYLAWYQQKPGKAPKLLIYKASTLASGVPSRFSGSGSGTDFTLTISSLQPEDFATYYCQQAYIITDIDNVFGTGTKVTVLG
notes: also called 33-03-G02 VL-G109A
Turning to B2, in [11], the “fold reduction of affinity vs the original domain” value was above 100 fold. In assay [12], this molecule displayed a Kd of 7.52 nM, an off-rate constant (koff) of 0.0135 s⁻¹ and a kon of 1.8e+06 M⁻¹ s⁻¹.
